The values below come from patent US20080280828A1 (NATURAL ENVIRONMENT RESEARCH COUNCIL, published 2008).

In test [1] the target is human IgE (Serotech) (human). As to the kind of experiment: SPR (BIAcore 2000), human IgE against guinea pig IgG on the same chip.
Test [2] deals with T1, human IgG Fc fragment (ICN) (human).
T1 construct: domain: Fc fragment; also called human Fc fragment; Fc (human) fragment
As to the kind of experiment: SPR (BIAcore 2000), human Fc immobilised, rIGBPMA 1 mg/ml as analyte. A general note: Surface plasmon resonance follows binding to a sensor surface in real time, without labels.

B1: recombinant IGBPMA (rIGBPMA), N-terminal 26 amino acid truncated, C-terminal 6-His-tag, expressed in (other)
chain: YEVYTGRGVTITVDNTQYEIPADLEKIFQKPKGFSVGSLLVALQEKGIPVNVDEKTGVILGITIDKVRVPFPVSIDLRFKLDNQIYLIPRDLAKLITVLEKKGMPSKILFILYTRYGVVPVRDSNGIVVAISFNGKQFKVKPEPLTAVVILGQKFILPRDTRKMVEFVHSKQSHPEIGFIFLKALKSAGFMLINDDDGAMRSIQKGAQIIKLGFEIRIQVIYGKTTYHVPKDLMRLVKDVRSLGPQEIQSVMKQLKAFDVQVKKEGSKLTILFNSVRYEVDLKSGNVKGHHHHHH
notes: also called soluble rIGBPMA; Clone No. F6
As for B1, the “fold of binding signal against IgG” value in test [1] amounted to 2 fold. Besides, in test [2], the “fold of binding over non-specific binding (BSA, F(ab)2)” value was 2 fold.
